pKd: −log10 of the molar value.
Legend:
[1] = system: DNA polymerase beta (Pol β) WT (human); assay: EMSA; details: EMSA: 50 nM substrate, 50 mM Hepes pH 7.5, 37 mM KCl, 5 mM MgCl2, 0.5 mM EDTA, 100 ug/ml BSA, on ice 10 min, gel at 4 C, FA: 50 mM Hepes pH 7.5, 20 mM KCl, 2 mM
[2] = system: Pol β V303C, 5-iodoacetamidofluorescein labeled; assay: fluorescence anisotropy; details: 5'-phosphorylated tetrahydrofuran at 5' end of nick; biotin at 5' ends; EMSA: 50 nM substrate, 50 mM Hepes pH 7.5, 37 mM KCl, 5 mM MgCl2, 0.5 mM EDTA, 100 ug/ml BSA, on ice 10 min, gel at 4 C; FA: 50 mM Hepes pH 7.5, 20 mM KCl, 2 mM
[3] = 5'-phosphorylated tetrahydrofuran at 5' end of nick

Substance: DNA-5'-P-THF-O (-35)
- pKd [1, 3]: 7.70

Substance: DNA-gI (-49)
- pKd ([1]; 5'-phosphate and 3'-OH at gap): 7.52

Substance: DNA-gO (-35)
- pKd ([1]; 5'-phosphate and 3'-OH at gap): 7.70

Substance: NCP-5'-P-THF-O (-35)
- pKd [1, 3]: 6.44

Substance: NCP-5'-P-THF-O (-35), 5'-biotin
- pKd [2]: 6.55

Substance: NCP-gI (-49)
- pKd ([1]; 5'-phosphate and 3'-OH at gap): 6.77

Substance: NCP-gO (-35)
- pKd ([1]; 5'-phosphate and 3'-OH at gap): 6.34

Substance: UND NCP
- pKd [1]: 6.13

Substance: UND-DNA
- pKd [1]: 7.30

From article PMC5587807
